The assay deals with T1, integrin αVβ3 (Homo sapiens, UniProt P05106+P06756).
T1 construct: U87MG cells, which are known to express high levels of integrin αVβ3; endogenous in cells; host or cells: U87MG cells
Description: Cell integrin receptor binding, U87MG cells, ^125I-RGDyK radioligand. The following applies: displacement of ^125I-RGDyK, room temperature 1 h, pH 7.4 binding buffer, n = 3. As to the method:
The integrin αVβ3 receptor binding study was performed using a previously reported procedure with a slight modification. ^125I-RGDyK was used as the radioligand and prepared immediately before use. […] All experiments were performed in triplicate. IC50 values were determined using GraphPad Prism software 5.

We go through one substance from publication PMC4628001, “Hybrid PET/optical imaging of integrin αVβ3 receptor expression using a ^64Cu-labeled streptavidin/biotin-based dimeric RGD peptide” (EJNMMI Research, 2015).

T1 sequence (P06756 31-889 limits assumed): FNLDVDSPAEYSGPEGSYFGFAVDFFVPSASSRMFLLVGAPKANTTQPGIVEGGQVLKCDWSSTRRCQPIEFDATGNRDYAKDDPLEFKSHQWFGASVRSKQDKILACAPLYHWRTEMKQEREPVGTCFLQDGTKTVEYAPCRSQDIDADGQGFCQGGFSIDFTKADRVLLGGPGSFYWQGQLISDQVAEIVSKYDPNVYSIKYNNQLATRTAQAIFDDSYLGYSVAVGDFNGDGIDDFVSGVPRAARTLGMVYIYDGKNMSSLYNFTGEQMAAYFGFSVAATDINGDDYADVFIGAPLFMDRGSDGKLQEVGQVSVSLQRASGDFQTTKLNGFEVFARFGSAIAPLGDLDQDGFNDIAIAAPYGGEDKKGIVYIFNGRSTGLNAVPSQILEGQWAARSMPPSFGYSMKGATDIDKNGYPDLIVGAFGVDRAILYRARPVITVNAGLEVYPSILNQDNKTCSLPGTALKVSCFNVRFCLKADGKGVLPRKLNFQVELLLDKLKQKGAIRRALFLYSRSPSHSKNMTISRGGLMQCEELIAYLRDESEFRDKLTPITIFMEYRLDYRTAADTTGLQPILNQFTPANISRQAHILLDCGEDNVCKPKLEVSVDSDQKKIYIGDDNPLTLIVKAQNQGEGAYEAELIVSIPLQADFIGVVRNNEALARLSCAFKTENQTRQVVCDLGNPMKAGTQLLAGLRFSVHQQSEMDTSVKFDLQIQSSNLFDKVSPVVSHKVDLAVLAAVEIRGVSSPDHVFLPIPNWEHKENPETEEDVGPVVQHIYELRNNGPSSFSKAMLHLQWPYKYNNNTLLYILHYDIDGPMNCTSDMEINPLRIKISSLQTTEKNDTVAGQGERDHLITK
T1 sequence (P06756 891-1048 partner limits assumed): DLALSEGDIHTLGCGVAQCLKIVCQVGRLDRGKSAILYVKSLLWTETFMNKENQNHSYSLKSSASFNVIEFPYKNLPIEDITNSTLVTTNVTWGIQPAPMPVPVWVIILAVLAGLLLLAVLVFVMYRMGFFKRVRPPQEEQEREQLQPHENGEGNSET
T1 sequence (P05106 27-788): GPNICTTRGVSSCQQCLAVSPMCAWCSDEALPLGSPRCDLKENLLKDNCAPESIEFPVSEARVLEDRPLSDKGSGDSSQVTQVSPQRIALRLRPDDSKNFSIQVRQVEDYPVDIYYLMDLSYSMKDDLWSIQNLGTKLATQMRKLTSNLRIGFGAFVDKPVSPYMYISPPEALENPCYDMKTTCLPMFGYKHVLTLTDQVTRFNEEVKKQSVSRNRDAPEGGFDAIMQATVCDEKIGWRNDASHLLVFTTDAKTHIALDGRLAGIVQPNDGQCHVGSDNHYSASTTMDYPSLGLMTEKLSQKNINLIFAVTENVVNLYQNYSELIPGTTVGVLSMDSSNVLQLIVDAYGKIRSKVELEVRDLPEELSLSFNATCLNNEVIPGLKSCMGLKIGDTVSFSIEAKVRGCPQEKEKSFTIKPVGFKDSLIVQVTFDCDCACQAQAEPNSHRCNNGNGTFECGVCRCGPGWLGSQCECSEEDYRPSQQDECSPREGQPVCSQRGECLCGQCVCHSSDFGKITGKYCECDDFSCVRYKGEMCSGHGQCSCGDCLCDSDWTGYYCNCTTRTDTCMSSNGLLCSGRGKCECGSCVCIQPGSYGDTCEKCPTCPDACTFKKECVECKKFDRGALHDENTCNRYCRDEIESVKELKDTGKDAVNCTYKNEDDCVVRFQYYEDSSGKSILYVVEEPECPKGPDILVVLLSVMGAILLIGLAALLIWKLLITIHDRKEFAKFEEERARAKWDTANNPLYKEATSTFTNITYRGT

Usually IC50 stands for the concentration at which inhibition is half-maximal. Substance “DOTA-(AF)SAv/biotin-PEG-RGD2: unlabeled complex comprising DOTA-(AF)SAv and biotin-PEG-RGD2” came in with an IC50 of 12.1 ± 4.2 nM.
